In US20140134183A1 (CELL MEDICA SWITZERLAND, published 2014):
“And” between values parts separate entries of the source, which are not always exact repeats. Equal entries are not always repeated.

Key:
[1] = biological target: T1, rhIL-1ra (human, UniProt P18510 26-177); assay: ELISA, cytokine coated, carried out essentially as for the species orthologs
T1 construct: Bought protein; also called rhIL-1 receptor antagonist; IL-1 beta receptor antagonist
Protocol: (§1) Briefly, proteins were coated at a concentration of 2 mcg/ml over night at 4° C. on Maxisorp 96-well microplates in PBS. […] The ELISA was developed with BM Blue POD substrate (Roche Applied Science) and the absorbance was measured at 450 nm.
(§2) In the applied ELISA assay the following antibodies served as positive controls: biotin anti-human IL-1ra (BioLegend, cat. no. 509501), biotin anti-human IL-1 alpha (BioLegend, cat. no. 515703), anti-human IL-18 polyclonal antibody (BioVision, cat. no. 5179-100), biotin anti-human IL-33 antibody (Peprotech, cat. no. 500-P261Bt), anti-human TNF alpha scFv DLX105 (Delenex propriety antibody described in WO 2006/131013 A), biotin anti-human IL-6 (R&D systems, DY206, cat. no. 840114), anti-human IL-36ra (R&D systems, cat. no. AF1275). The ELISA was carried out essentially as described above.

[2] = biological target: T2, rhIL-1 alpha (human, UniProt P01583 113-271); assay: as above
T2 construct: Bought protein
T2 sequence (looked up): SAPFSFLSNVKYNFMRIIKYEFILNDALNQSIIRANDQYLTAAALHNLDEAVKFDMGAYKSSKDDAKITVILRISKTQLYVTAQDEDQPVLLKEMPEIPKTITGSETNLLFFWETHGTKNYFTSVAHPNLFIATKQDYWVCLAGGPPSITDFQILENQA
Protocol: as §1, §2

[3] = biological target: T3, rhTNF alpha (human, UniProt P01375 77-233); assay: as above
T3 construct: Bought protein
Protocol: as §1, §2

[4] = biological target: T4, IL-36ra (human, UniProt Q9UBH0 2-155); assay: as above
T4 construct: Bought protein
T4 sequence (looked up): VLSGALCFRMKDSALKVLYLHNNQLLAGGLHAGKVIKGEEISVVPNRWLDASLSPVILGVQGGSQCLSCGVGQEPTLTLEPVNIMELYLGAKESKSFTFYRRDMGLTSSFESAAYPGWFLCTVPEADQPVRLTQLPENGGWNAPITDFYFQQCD
Protocol: as §1, §2

[5] = biological target: T5, rhIL-18 (human, UniProt Q14116 37-193); assay: as above
T5 construct: Bought protein
Protocol: as §1, §2

[6] = biological target: T6, rhIL-33 (human, UniProt O95760 112-270); assay: as above
T6 construct: Bought protein
T6 sequence (looked up): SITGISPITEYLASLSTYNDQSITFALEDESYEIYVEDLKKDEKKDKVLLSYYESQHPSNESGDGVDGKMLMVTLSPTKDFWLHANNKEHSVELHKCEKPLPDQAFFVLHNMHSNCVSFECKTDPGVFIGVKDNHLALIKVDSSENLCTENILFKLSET
Protocol: as §1, §2

[7] = biological target: T7, rhIL-6 (human, UniProt P05231 30-212); assay: as above
T7 construct: Bought protein
Protocol: as §1, §2

[8] = biological target: T8, mouse IL-1 beta (mouse, UniProt P10749 118-269); assay: ELISA, IL-1 beta coated at 2 mcg/ml, Protein L-HRP detection
T8 construct: Bought protein
Text: (§3) Binding to the recombinantly expressed IL-1 beta proteins of the following species was investigated: cynomolgus (Sino Biological Inc., USA, cat. no. 90010-CNAE), rhesus macaque (R&D Systems, USA, cat. no. 1318-RL/CF), swine (Kingfisher Biotech, USA, cat. no. RP0297S-025), canine (Kingfisher Biotech, USA, cat. no. RP0085D-025), guinea pig (Kingfisher Biotech, cat. no. RP0343GP-025), rat (Peprotech, cat. no. 400-01B) and mouse (BioLegend, cat. no. 575102). […] Briefly, proteins were coated at a concentration of 2 mcg/ml over night at 4° C. on Maxisorp 96-well microplates in PBS. […] The ELISA was developed with BM Blue POD substrate (Roche Applied Science) and the absorbance was measured at 450 nm.

[9] = biological target: T9, canine IL-1 beta (canine, UniProt Q28292 115-266, limits assumed); assay: as above
T9 construct: Bought protein
T9 sequence (looked up): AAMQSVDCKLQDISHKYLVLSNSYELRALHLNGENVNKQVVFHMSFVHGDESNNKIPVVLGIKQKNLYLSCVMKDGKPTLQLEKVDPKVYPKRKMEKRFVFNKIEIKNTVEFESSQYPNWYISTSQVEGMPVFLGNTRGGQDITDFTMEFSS
Text: as §3

[10] = biological target: T10, swine IL-1 beta (swine, UniProt P26889 115-267, limits assumed); assay: as above
T10 construct: Bought protein; also called porcine IL-1 beta
T10 sequence (looked up): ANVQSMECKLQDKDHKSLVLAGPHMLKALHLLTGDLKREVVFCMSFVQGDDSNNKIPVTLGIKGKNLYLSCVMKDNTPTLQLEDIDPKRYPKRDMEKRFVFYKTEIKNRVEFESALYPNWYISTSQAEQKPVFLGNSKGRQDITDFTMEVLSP
Text: as §3

[11] = biological target: T11, guinea pig IL-1 beta (guinea pig, UniProt Q9WVG1 115-266); assay: as above
T11 construct: Bought protein
T11 sequence: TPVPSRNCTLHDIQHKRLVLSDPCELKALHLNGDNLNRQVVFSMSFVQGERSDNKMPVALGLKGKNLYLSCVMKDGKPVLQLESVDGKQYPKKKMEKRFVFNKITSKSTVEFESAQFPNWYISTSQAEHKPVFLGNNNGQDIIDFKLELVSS
Text: as §3

[12] = biological target: recombinant human IL-1 beta (human, UniProt P01584 117-269); assay: cell-based or functional assay
[13] = biological target: T12, rhesus macaque IL-1 beta (rhesus macaque, UniProt P48090 117-269); assay: ELISA, IL-1 beta coated at 2 mcg/ml, DLX2323 0.1 to 1.0 mcg/ml, Protein L-HRP detection
T12 construct: Bought protein; also called rhesus monkey IL-1 beta
Text: as §3

[14] = biological target: T13, cynomolgus IL-1 beta (cynomolgus, UniProt P79182 117-268); assay: as above
T13 construct: Bought protein
Text: as §3

[15] = biological target: T14, rat IL-1 beta (rat, UniProt Q63264 117-268); assay: as above
T14 construct: Bought protein
Text: as §3

T1 sequence (P18510 26-177): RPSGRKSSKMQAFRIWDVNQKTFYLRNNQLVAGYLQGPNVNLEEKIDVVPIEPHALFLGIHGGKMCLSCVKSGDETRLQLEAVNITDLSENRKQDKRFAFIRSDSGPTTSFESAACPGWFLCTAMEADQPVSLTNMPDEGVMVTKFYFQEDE
T8 sequence (P10749 118-269 limits assumed): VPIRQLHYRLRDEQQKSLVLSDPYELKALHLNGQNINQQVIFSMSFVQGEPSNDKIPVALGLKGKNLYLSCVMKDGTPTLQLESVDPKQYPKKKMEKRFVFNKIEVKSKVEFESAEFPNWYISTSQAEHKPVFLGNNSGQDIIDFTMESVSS
T14 sequence (Q63264 117-268 limits assumed): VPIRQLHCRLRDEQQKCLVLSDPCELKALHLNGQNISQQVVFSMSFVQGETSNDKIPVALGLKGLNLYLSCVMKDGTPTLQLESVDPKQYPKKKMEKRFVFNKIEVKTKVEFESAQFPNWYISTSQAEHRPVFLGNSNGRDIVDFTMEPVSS
T3 sequence (P01375 77-233): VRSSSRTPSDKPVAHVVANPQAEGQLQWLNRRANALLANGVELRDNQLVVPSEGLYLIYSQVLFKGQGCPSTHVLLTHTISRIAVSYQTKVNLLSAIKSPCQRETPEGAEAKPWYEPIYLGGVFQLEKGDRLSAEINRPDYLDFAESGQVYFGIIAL
T12 sequence (P48090 117-269 limits assumed): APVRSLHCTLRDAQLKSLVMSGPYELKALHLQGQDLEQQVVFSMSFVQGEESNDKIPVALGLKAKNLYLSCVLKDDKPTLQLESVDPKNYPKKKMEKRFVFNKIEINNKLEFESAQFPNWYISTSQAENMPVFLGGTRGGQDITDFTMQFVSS
T7 sequence (P05231 30-212 limits assumed): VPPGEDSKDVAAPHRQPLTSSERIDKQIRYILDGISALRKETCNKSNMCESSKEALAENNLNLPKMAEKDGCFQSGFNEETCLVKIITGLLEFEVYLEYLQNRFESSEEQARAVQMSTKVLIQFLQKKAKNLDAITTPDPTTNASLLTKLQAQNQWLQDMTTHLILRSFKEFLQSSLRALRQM
T13 sequence (P79182 117-268 limits assumed): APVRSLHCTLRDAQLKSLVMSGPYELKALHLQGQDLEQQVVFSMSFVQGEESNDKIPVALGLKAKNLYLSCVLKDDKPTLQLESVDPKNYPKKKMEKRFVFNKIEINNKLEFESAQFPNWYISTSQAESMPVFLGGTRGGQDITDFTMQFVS

- binding result [1]: no binding
- binding result [2]: no binding
- binding result [3]: no binding
- binding result [4]: no binding
- binding result [5]: no binding
- binding result [6]: no binding
- binding result [7]: no binding
- binding result [8]: no binding (tested: 1.0 mcg/ml)
- binding result [9]: no binding (tested: 1.0 mcg/ml)
- binding result [10]: no binding (tested: 1.0 mcg/ml)
- binding result [11]: no binding (tested: 1.0 mcg/ml)
- IC50 of IL-1 beta-induced IL-6 release from human dermal fibroblasts [12]: 3 pM and 0.002 nM to 0.004 nM (2×)
- binding result [13]: binds
- binding result [14]: binds
- binding result [15]: binds
B1: DLX2323 (scFv)
scFv: EIVMTQSPSTLSASVGDRVIITCQASQSIDNWLSWYQQKPGKAPKLLIYRASTLASGVPSRFSGSGSGAEFTLTISSLQPDDFATYYCQNTGGGVSIAFGQGTKLTVLGGGGGSGGGGSGGGGSGGGGSEVQLVESGGGLVQPGGSLRLSCTASGFSLSSAAMAWVRQAPGKGLEWVGIIYDSASTYYASWAKGRFTISRDTSKNTVYLQMNSLRAEDTAVYYCARERAIFSGDFVLWGQGTLVTVSS
notes: also called scFv DLX2323; parental scFv
